The record followed here is the supplement of paper PMC10724198.

± gives the standard deviation of the averaged measurements.
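Further: PSI is a weighted mean of sequencing reads over stability bins, variants kept only with over 10 reads, mCherry proximal and sfGFP distal, peptide attached via GGGS linker.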

This data set has as its system Saccharomyces cerevisiae. As to the kind of experiment: protein stability index of tFT-peptide fusion (C-terminal peptide) (PSI (0-1 scale)); higher = more stable (slower turnover). The note with it: genetic background: wild type; temperature: 30 C.
For PSTRPQYLFLPP, the protein stability index is 0.635 ± 0.016.

PSVPLLPPAPLS had a protein stability index of 0.784 ± 0.075. To PSVRRLPARRRT belongs 0.626 ± 0.066; to PSVSPLFSSPPP, 0.719 ± 0.012. The sequence PSWPRLSFRPST showed a protein stability index of 0.689 ± 0.022. In the case of PSYRVVVFSLPD it was 0.758 ± 0.063; in that of PTCPAPLPPSSP, 0.699 ± 0.061; in that of PTETRRIGHHEG, 0.661 ± 0.043. In the case of PTGPPPPSLGPP it was 0.694 ± 0.021.

As to PTLHVGPGTPHA, the protein stability index stood at 0.705 ± 0.058. In the case of PTLPSRYPPPMF it was 0.751 ± 0.01; in that of PTLPTLFPSSSL, 0.7448 ± 0.0045.

PTLSSRPPPYPR registered a protein stability index of 0.642 ± 0.048. PTNPPLSQPPPQ: the protein stability index was 0.702 ± 0.039. In the case of PTPGGLIIVLGS it was 0.6322 ± 0.0041.

Consider PTPHLHPTSLPG, for which the protein stability index is 0.724 ± 0.1. To PTPLCPPLAVRL belongs 0.691 ± 0.032. PTPLPSPCPAPP displayed a protein stability index of 0.703 ± 0.025. For the sequence PTRRVHRTPLFP, the protein stability index came out at 0.778 ± 0.13. With PTSFPAPNLPPD, the protein stability index is 0.669 ± 0.0045.

With PTSVRPPRRRPR, the protein stability index came out at 0.745 ± 0.089. For PTTQVGRRTPLA, the protein stability index came to 0.647 ± 0.029. To PTVGGGLDGVGR belongs 0.669 ± 0.063; to PTWGRSDESKAM, 0.744 ± 0.0099; to PVASGYTMWSCV, 0.693 ± 0.015.

The sequence PVEAPVGLVCAK showed a protein stability index of 0.568 ± 0.011. To PVFPLTLPAFSS belongs 0.815 ± 0.018; to PVGWRGGYVGGR, 0.666 ± 0.092; to PVHFLPTPRAPL, 0.686 ± 0.039. In the case of PVLGRFGSTFVV it was 0.674 ± 0.059. In the case of PVLGYLTRGLWL it was 0.721 ± 0.015; in that of PVLMTHPYFASS, 0.725 ± 0.0083. Turning to PVLPPLLPLPCL, the protein stability index came to 0.644 ± 0.044. In the case of PVLRPPPPLSPP it was 0.734 ± 0.021; in that of PVNQRPDGGNQD, 0.764 ± 0.016. To PVPERTSAEPPG belongs 0.618 ± 0.038; to PVPLSALPPLPP, 0.746 ± 0.034. In the case of PVPMVPTYPPSP it was 0.736 ± 0.044; in that of PVPPFDGLVPAL, 0.728 ± 0.089. The sequence PVPPPPPPPPPL yielded a protein stability index of 0.667 ± 0.0059. In the case of PVRCSDLDLTFL it was 0.774 ± 0.054.

The sequence PVRDGFSLCFVL had a protein stability index of 0.761 ± 0.14. The sequence PVRIQTFLFCVP displayed a protein stability index of 0.595 ± 0.012. For the sequence PVRRAHPPPPRP, the protein stability index came out at 0.674 ± 0.014. To PVRVRGRGGCGG belongs 0.684 ± 0.11; to PVSCLGNQACYV, 0.628 ± 0.073. In the case of PVSLPPSLRRPS it was 0.736 ± 0.034; in that of PVTRRDVDLPPP, 0.706 ± 0.039; in that of PVTTYPPQRHIA, 0.593 ± 0.03. To PVVTGGFHIVGF belongs 0.793 ± 0.078.

Consider PWPGSWALFCFI, for which the protein stability index was found to be 0.719 ± 0.15. In the case of PWPPRPPPPPSL it was 0.694 ± 0.048; in that of PWRPRMAGVDYR, 0.867 ± 0.13; in that of PWTSSTTSRFPS, 0.727 ± 0.033. As to PYHVPTPRATNR, the protein stability index was 0.659 ± 0.026. In the case of PYTHDRTTSPVF it was 0.762 ± 0.12. PYWVPSKSSLSP displayed a protein stability index of 0.742 ± 0.068.

Sequence QAGALTTIPTFA gave a protein stability index of 0.616 ± 0.019. In turn, QAYGFEDISFSI returned a protein stability index of 0.808 ± 0.076. QCYNGSSGVSNL came in with a protein stability index of 0.676 ± 0.028. In the case of QDSETYSNEAGL it was 0.669 ± 0.031; in that of QFFVVLVSHEGR, 0.63 ± 0.011; in that of QFRCAIFRLSFV, 0.613 ± 0.023. In the case of QFTFPPGTSAPV it was 0.66 ± 0.032.
